# Test results reported in the supplement of paper PMC9732359.
# ± gives the uncertainty stated by the source.
# Assay: protein stability index of a GFP-peptide fusion (yeast GPS) (PSI 1-4); higher = more stable; sorted into four equal gates, so the index is relative within each strain
# Outline: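 Yeast carrying a pooled library were grown to mid-log phase in leucine-free medium. Each library plasmid expresses Cherry and has a tiled 17-residue yeast protein peptide fused downstream of GFP. Cells were sorted into four equal gates by GFP/Cherry ratio, and plasmids from each gate were PCR-amplified, Illumina-sequenced and assigned to strains by barcode. Summing, across gates, the read frequency times the gate number gave each peptide's protein stability index.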
Sequence,protein stability index (pdr5∆),protein stability index (doa10∆),protein stability index (san1∆),protein stability index (ubr1∆)
AVIAAIMQEAGLRAVRK [RPT3],1.15 ± 0.19,–,–,–
AVKRGTCAVGVKGKNCV [PRE6],1.62 ± 0.18,1.06 ± 0.11,1.39 ± 0.27,2.51 ± 0.17
AVQNESVSSPIELNFDA [QCR2],2.95 ± 0.061,2.95 ± 0.059,2.86 ± 0.065,3.06 ± 0.042
AVTEREVLVTPGLEFLD [MCD1],3.15 ± 0.15,2.85 ± 0.14,2.75 ± 0.089,2.94 ± 0.13
AVYGPRSIRGSFTSQGT [MTR3],3.2 ± 0.086,3.16 ± 0.12,3.08 ± 0.098,3.02 ± 0.058
AYAQVEIQPRANIQLDF [FAS2],3.06 ± 0.066,3.17 ± 0.061,3.08 ± 0.057,3.16 ± 0.049
AYGVLDSNYKWDLSVED [PRE2],2.94 ± 0.083,3 ± 0.073,3.26 ± 0.086,3.42 ± 0.056
AYHQKYVDEQSKNELKK [RPS16A],2.02 ± 0.094,2.5 ± 0.093,2.02 ± 0.13,2.94 ± 0.12
CGGINDSIPYPQIVKLF [ECM29],1.31 ± 0.06,1.56 ± 0.07,1.96 ± 0.086,1.71 ± 0.049
CGHRILLKARTKRLVQF [RPC10],1.99 ± 0.13,1.43 ± 0.11,1.68 ± 0.18,1.22 ± 0.052
CIQVNCLNCEKSKLFEW [SNM1],3.29 ± 0.058,3.11 ± 0.065,3.13 ± 0.05,3.16 ± 0.052
CLEACSFILSSLEDPQV [YDL116W/NUP84],2.71 ± 0.054,2.68 ± 0.048,2.87 ± 0.038,2.75 ± 0.042
CLMRSLHKLELKAKNQE [DSN1],1.31 ± 0.067,1.21 ± 0.06,1.19 ± 0.16,1.16 ± 0.051
CLQDALDAIDDFIQLKQ [SSN2],2.6 ± 0.056,2.73 ± 0.081,2.2 ± 0.063,2.92 ± 0.06
CLTMFEDRNESVNIAFA [ECM29],2.52 ± 0.094,2.42 ± 0.13,2.81 ± 0.11,2.5 ± 0.073
CNEEQTLEAKIGGLLSK [RPO31],3.25 ± 0.059,3.16 ± 0.059,2.99 ± 0.052,2.91 ± 0.05
CNSIINKLGALKTNFET [RPB11],2.42 ± 0.099,2.57 ± 0.089,2.68 ± 0.088,3.05 ± 0.17
CSGSGMGGVSALRGMFK [FAS2],3.68 ± 0.08,3.64 ± 0.097,3.37 ± 0.096,3.43 ± 0.067
CSKAMGDLASLVLLNGR [RPP1],2.9 ± 0.05,2.84 ± 0.061,2.62 ± 0.058,2.73 ± 0.037
CSNESFASIPVSNSISR [SNU114],2.67 ± 0.057,2.55 ± 0.069,2.46 ± 0.078,2.7 ± 0.062
CSNPTCGAGVFLANHKD [RPS31],2.82 ± 0.21,3.06 ± 0.12,2.57 ± 0.24,2.73 ± 0.14
CSPKLPVEKVQRIAKND [DLS1],3.32 ± 0.12,2.86 ± 0.29,3.17 ± 0.13,3.4 ± 0.12
CSPWSLQISDIPAAGNN [SRB5],2.21 ± 0.04,2.07 ± 0.04,1.96 ± 0.055,2.41 ± 0.032
CTSLMDIIVAIKIFELK [IRR1],1.41 ± 0.16,2.1 ± 0.2,2.13 ± 0.16,1.36 ± 0.072
CVEISHISKIIGLDTQQ [RPN6],–,2.38 ± 0.17,–,–

Sequence,protein stability index (pdr5∆),protein stability index (doa10∆),protein stability index (san1∆),protein stability index (ubr1∆)
CVYSGLIPDGRHLVNRG [PRE10],1.82 ± 0.22,–,2.1 ± 0.14,–
CWPKDSRMRLIRQDVNL [PRP8],2.68 ± 0.09,2.52 ± 0.081,2.72 ± 0.067,2.76 ± 0.12
DADTEDPHSASLINSHL [RPC82],3.27 ± 0.085,2.9 ± 0.084,2.97 ± 0.078,3 ± 0.13
DAELMADEEEEIVDTYQ [ISW2],1.3 ± 0.27,1.32 ± 0.15,–,1.24 ± 0.25
DALKVVLRTALVHDGLA [RPS12],2.51 ± 0.14,2.5 ± 0.17,2.72 ± 0.098,3.25 ± 0.1
DALVKRFKNSVKWYHFD [PRE7],3.37 ± 0.12,3.19 ± 0.13,3.18 ± 0.072,3.08 ± 0.07
DAVKDFKLGKFNYVAVG [QCR2],1.52 ± 0.14,3.2 ± 0.24,–,–
DCLDKLLNDECTESTRE [SNF2],3.4 ± 0.13,3.5 ± 0.14,3.48 ± 0.091,3.41 ± 0.17
DCQFWETWLGSQCRLHE [PRE2],2.1 ± 0.14,2.22 ± 0.096,2.59 ± 0.11,2.6 ± 0.09
DDDDSRKSAPVDSWDRE [SKP1],3.21 ± 0.048,3.15 ± 0.047,3.21 ± 0.048,3.23 ± 0.044
DDDILIIRPILGKVRFA [SRB4],1.66 ± 0.092,1.51 ± 0.056,1.93 ± 0.15,2.56 ± 0.05
DDELMNWRRLSGRNIHL [SSN2],2.91 ± 0.074,3 ± 0.088,3.01 ± 0.087,3.19 ± 0.09
DDIVSHQGTPLGSHSSS [REC8],3.37 ± 0.12,3.2 ± 0.15,3.04 ± 0.16,3.3 ± 0.095
DDLADDDFEEDEDEEDD [RPC31],3.31 ± 0.12,–,3.21 ± 0.09,3.46 ± 0.29
DDLIAEENPIMQTALRR [QCR7],3.24 ± 0.22,–,2.92 ± 0.15,3.06 ± 0.13
DDPLENMFGDYSNEPFN [SNF6],2.81 ± 0.069,2.98 ± 0.087,3.26 ± 0.085,3.16 ± 0.058
DDPTQLVSRGGCGNTQP [RPO21],2.55 ± 0.19,3.18 ± 0.12,2.97 ± 0.11,3.04 ± 0.088
DDRGPVLESIVARTFWA [BRR2],2.07 ± 0.057,2.67 ± 0.09,2.9 ± 0.11,2.85 ± 0.077
DDSFFNETNDKKRNPSK [PRP28],2.96 ± 0.1,3.16 ± 0.098,3.13 ± 0.072,2.85 ± 0.084
DDSRNPDCKIKIAHGTT [PRE2],2.77 ± 0.067,2.63 ± 0.086,2.72 ± 0.076,2.84 ± 0.078
DDTKETVYISSIALLKM [RPN11],2.77 ± 0.084,3.09 ± 0.087,2.71 ± 0.048,2.93 ± 0.055
DDVTCDKLSVSEISDGK [SIN4],3.11 ± 0.078,2.97 ± 0.073,2.81 ± 0.08,3.29 ± 0.058
DEAKEKQLVEKAELRLA [ECM29],3.26 ± 0.24,–,–,3.27 ± 0.16
DEDKFKKLKPIVAKYDP [PRP28],2.9 ± 0.088,2.78 ± 0.077,2.9 ± 0.094,1.98 ± 0.059
DEESLVKYMPEQKITEI [RPO21],2.94 ± 0.098,3.23 ± 0.12,2.99 ± 0.1,3.12 ± 0.056
